Test results reported in US10487337B2, “Methods for monocot plant improvement” (Agresearch Limited, priority 2014, dated 2019).

What was measured:
BZR1 = target: T1, BZR1 (Arabidopsis thaliana, UniProt Q8S307); assay: BiFC interaction with BZR1 in Nicotiana benthamiana leaves; type: cell-based
T1 construct: expressed in transfected cells; host or cells: Nicotiana benthamiana leaves (Agrobacterium infiltration)
T1 sequence (Q8S307 1-336): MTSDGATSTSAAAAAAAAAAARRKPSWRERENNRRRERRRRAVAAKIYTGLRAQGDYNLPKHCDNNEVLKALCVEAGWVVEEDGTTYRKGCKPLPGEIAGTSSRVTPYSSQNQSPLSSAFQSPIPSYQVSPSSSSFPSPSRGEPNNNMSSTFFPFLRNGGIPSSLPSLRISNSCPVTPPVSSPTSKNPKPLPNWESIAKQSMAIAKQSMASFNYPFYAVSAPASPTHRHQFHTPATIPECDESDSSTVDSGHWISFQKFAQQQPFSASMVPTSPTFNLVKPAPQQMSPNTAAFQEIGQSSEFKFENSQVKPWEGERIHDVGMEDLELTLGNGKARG
From the text: The binary BiFC-Gateway YFP vectors pDEST-VYNE(R)^GW (Venus aa 1-173) and pDEST-VYCE(R)^GW (Venus aa 156-239) with N-terminal fusions, were used to construct the following vectors; pDESTnYFP-BZR1, pDESTnYFP-NINJA, pDESTnYFP-PPD1, pDESTcYFP-BZR1, pDESTcYFP-PPD1, pDESTcYFP-PPD1Δppd, pDESTcYFP-PPD1Δtify and pDESTcYFP-PPD1Δjas*. For transient in planta expression of proteins interacting with PPD1 or BZR, NINJA and TPL were Gateway® sub-cloned into pRSh1, to construct pRSh1-NINJA and pRSh1-TPL. Plasmids for co-immunoprecipitation: A synthesised DNA construct encoding PPD1 with a 3×c-myc C-terminal fusion was sub-cloned into pRSh1 to produce pRSh1-PPD1-3×c-myc, while the NINJA cDNA sequence was sub-cloned into pB7FWG2,0 (Karimi et al 2002, Trends Plant Sci. 7, 193-195) to construct pB7FWG2-NINJA-GFP. When expressed these constructs produced proteins listed in sequences 60, 62, 70 71 72 73 74 75 76 77 78 79: including TOPLESS (TPL), NINJA, Bimolecular Fluorescence (BiFC) nYFP, BiFC cYFP, BiFC nYFP-NINJA, BiFC nYFP-BZR1, BiFC cYFP-PPD1, BiFC cYFP-NINJA, BiFC cYFP-BZR1, BiFC cYFP-PPD1-ppd, BiFC cYFP-PPD1-tify, BiFC cYFP-PPD1-jas*.
Transient BiFC experiments were performed using combinations of pDESTnYFP and pDESTcYFP plasmids, with or without plasmids for the expression of NINJA (pRSh1-NINJA) or TPL (pRSh1-TPL) and Agrobacterium-infiltration of Nicotiana benthamiana leaves. For infiltration Agrobacterium tumefaciens GV3101 strains containing the binary vectors were re-suspended from plates and prepared for transformation as described for the LUC assay. All YFP and expression strains were mixed in ratios of 1:1 (vol/vol) with the addition of strain P19 at 1/10th volume. Five leaf discs were sampled from each infiltrated leaf after 40 h. Two hours prior to sampling for microscopic fluorescence observations leaves were infiltrated with a 1 μg/ml DAPI solution to stain nuclei. YFP fluorescence and DAPI staining was detected using an Olympus Fluoview FV10i confocal laser scanning microscope. Each experiment was repeated twice.

ryegrass plants = assay: Leaf biomass analysis of grass transformants; type: in vivo; settings: observed leaf growth, approximately 6 weeks
Procedure: (§1) An equal number (typically 4-10) of tillers were taken from WT and ryegrass plants transformed with Arabidopsis PPD under one of two green tissue promoters. Tillers were planted into plastic grow bags containing potting mix and pruned to be of equal height. […] The increase in leaf/shoot biomass can be quantified removing the attached above ground portion (leaves and shoots) and drying them at 65° C. for 48 hr then weighing the dry weights.
as §1, with “a constitutive promoter.” for “one of two green tissue promoters.”, “was” for “can be”, “weights (Table 2).” for “weights.”

B1: PPD1: PEAPOD 1 protein of Arabidopsis thaliana, SEQ ID NO: 1 (protein, listed as Arabidopsis thaliana)
chain: MDVGVSPAKSILAKPLKLLTEEDISQLTREDCRKFLKDKGMRRPSWNKSQAIQQVLSLKALYEPGDDSGAGIFRKILVSQPVNPPRVTTTLIEPSNELEACGRVSYPEDNGACHRMDSPRSAEFSGGSGHFVSEKDGHKTTISPRSPAETSELVGQMTIFYSGKVNVYDGIPPEKARSIMHFAANPIDLPENGIFASSRMISKLISKEKMMELPQKGLEKANSSRDSGMEGQANRKVSLQRYREKRKDRKFSKAKKCPGVASSSLEMFLNCQPRMKAAYSQNLGCTGSPLHSQSPESQTKSPNLSVDLNSEGI
BZR1; fully expanded leaves, co-expression of NINJA
  interaction with BZR1: restored
BZR1; pavement cells of immature Nicotiana benthamiana leaves
  interaction with BZR1: appears to interact with BZR1 in the nucleus
Ryegrass plants; constitutive promoter
  leaf biomass/growth/length/branching compared to WT plants: increase in leaf biomass/growth/length/branching
Ryegrass plants; green tissue promoter
  leaf biomass/growth/length/branching compared to WT plants: increase in leaf biomass/growth/length/branching
